Experiment [1] has as its target T1, human FcγRIIa type R extracellular domain with C-terminal His tag (human, UniProt P12318 34-217).
T1 sequence (looked up): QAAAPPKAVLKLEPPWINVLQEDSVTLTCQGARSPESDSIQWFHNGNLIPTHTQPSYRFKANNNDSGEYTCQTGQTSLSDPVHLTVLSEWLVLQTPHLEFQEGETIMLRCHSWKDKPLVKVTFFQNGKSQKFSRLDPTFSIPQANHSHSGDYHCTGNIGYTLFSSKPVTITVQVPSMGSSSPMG
Description: SPR.

Experiment [2] addresses T2, human FcγRIIb extracellular domain with C-terminal His tag (human, UniProt P31994 43-217).
T2 sequence (looked up): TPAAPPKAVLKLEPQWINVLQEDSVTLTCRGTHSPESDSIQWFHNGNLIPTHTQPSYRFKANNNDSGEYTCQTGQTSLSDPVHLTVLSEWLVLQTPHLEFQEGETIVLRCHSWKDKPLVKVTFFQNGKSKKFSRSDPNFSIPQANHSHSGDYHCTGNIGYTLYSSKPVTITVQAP
Description: ratio of SPR KD values.

Experiment [3] addresses human FcγRIa extracellular domain with C-terminal His tag (human, UniProt P12314 16-292). Description: SPR.
Target sequence in this assay (P12314 16-292): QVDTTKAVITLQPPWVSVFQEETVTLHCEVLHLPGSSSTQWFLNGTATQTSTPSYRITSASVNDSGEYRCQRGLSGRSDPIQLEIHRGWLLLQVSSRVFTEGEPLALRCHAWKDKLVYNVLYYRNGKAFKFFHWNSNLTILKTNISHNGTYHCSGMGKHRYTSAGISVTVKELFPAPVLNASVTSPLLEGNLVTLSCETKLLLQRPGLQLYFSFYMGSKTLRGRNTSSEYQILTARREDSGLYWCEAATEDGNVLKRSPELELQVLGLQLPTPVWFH
In experiment [4] the target is T3, human FcγRIIa type H extracellular domain with C-terminal His tag (human, UniProt P12318 34-217).
T3 sequence (looked up): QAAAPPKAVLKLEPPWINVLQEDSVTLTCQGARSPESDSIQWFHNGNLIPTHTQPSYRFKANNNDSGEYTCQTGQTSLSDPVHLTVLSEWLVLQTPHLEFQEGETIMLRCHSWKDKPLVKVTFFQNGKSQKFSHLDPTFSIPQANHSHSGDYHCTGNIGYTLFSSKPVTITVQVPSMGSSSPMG
Description: SPR. On the technique in general: Surface plasmon resonance follows binding to a sensor surface in real time, without labels.

Experiment [5] deals with human FcγRIIIa type V extracellular domain with C-terminal His tag (human, UniProt P08637 17-208). Description: SPR.
In experiment [6] the target is T4, human FcγRIIa type R extracellular domain with C-terminal His tag (human, UniProt P12318 34-217).
T4 sequence (looked up): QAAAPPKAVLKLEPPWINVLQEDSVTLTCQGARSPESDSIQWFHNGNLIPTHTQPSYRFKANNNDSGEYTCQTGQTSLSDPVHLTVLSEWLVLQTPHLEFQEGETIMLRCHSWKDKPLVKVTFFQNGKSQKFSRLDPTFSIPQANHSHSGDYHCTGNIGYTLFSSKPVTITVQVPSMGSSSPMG
Description: SPR. The source holds these as a separate data set.

Experiment [7] concerns the target human FcγRIa extracellular domain with C-terminal His tag (human, UniProt P12314 16-292). Description: SPR. The source holds these as a separate data set.
Target sequence in this assay (P12314 16-292): as the sequence (P12314 16-292) above

Read-outs that look alike come from different tables or passages of the source.

Chain of human FcγRIIIa type V extracellular domain with C-terminal His tag (P08637 17-208 F176V): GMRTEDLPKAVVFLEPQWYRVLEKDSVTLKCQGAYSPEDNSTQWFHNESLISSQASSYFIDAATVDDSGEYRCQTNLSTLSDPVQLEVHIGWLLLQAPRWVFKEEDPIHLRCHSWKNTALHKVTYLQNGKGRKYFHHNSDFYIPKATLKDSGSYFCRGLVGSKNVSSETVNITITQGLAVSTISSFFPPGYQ

B1: IL6R-BP132/IL6R-L (antibody, human IgG1, kappa)
heavy: QVQLQESGPGLVKPSETLSLTCAVSGHSISHDHAWSWVRQPPGEGLEWIGFISYSGITNYNPSLQGRVTISRDNSKNTLYLQMNSLRAEDTAVYYCARSLARTTAMDYWGEGTLVTVSSASTKGPSVFPLAPSSKSTSGGTAALGCLVKDYFPEPVTVSWNSGALTSGVHTFPAVLQSSGLYSLSSVVTVPSSSLGTQTYICNVNHKPSNTKVDKKVEPKSCDKTHTCPPCPAPDLLGGDSVFLFPPKPKDTLMISRTPEVTCVVVDVSHEDPEVKFNWYVDGVEVHNAKTKPREEQYNSTYRVVSVLTVLHQDWLNGKEYKCKVSNAALPKPIEKTISKAKGQPREPQVYTLPPSRDELTKNQVSLTCLVKGFYPSDIAVEWESNGQPENNYKTTPPVLDSDGSFFLYSKLTVDKSRWQQGNVFSCSVMHEALHNHYTQESLSLSP
light: not shown
As for B1, in experiment [1], binding was characterised by a dissociation constant (Kd) of 80 µM.

B2: IL6R-BP198/IL6R-L (antibody, human IgG1, kappa)
heavy: QVQLQESGPGLVKPSETLSLTCAVSGHSISHDHAWSWVRQPPGEGLEWIGFISYSGITNYNPSLQGRVTISRDNSKNTLYLQMNSLRAEDTAVYYCARSLARTTAMDYWGEGTLVTVSSASTKGPSVFPLAPSSKSTSGGTAALGCLVKDYFPEPVTVSWNSGALTSGVHTFPAVLQSSGLYSLSSVVTVPSSSLGTQTYICNVNHKPSNTKVDKKVEPKSCDKTHTCPPCPAPDYLGGDSVFLFPPKPKDTLMISRTPEVTCVVVDVSDEDGEVKFNWYVDGVEVHNAKTKPREEQYNSTYRVVSVLTVLHQDWLNGKEYKCKVSNAALPKPIEKTISKAKGQPREPQVYTLPPSRDELTKNQVSLTCLVKGFYPSDIAVEWESNGQPENNYKTTPPVLDSDGSFFLYSKLTVDKSRWQQGNVFSCSVMHEALHNHYTQESLSLSP
light: not shown
With B2, the “KD (IIb) of the parent polypeptide/KD (IIb) of the altered polypeptide” value in experiment [2] is 15.7 fold.

B3: IL6R-BP269/IL6R-L (antibody, human IgG1, kappa)
heavy: QVQLQESGPGLVKPSETLSLTCAVSGHSISHDHAWSWVRQPPGEGLEWIGFISYSGITNYNPSLQGRVTISRDNSKNTLYLQMNSLRAEDTAVYYCARSLARTTAMDYWGEGTLVTVSSASTKGPSVFPLAPSSKSTSGGTAALGCLVKDYFPEPVTVSWNSGALTSGVHTFPAVLQSSGLYSLSSVVTVPSSSLGTQTYICNVNHKPSNTKVDKKVEPKSCDKTHTCPPCPAPELLGDDSVFLFPPKPKDTLMISRTPEVTCVVVDVSEEDGEVKFNWYVDGVEVHNAKTKPREEQDNSTYRVVSVLTVLHQDWLNGKEYKCKVSNKALPAPIEKTISKAKGQPREPQVYTLPPSRDELTKNQVSLTCLVKGFYPSDIAVEWESNGQPENNYKTTPPVLDSDGSFFLYSKLTVDKSRWQQGNVFSCSVMHEALHNHYTQESLSLSP
light: not shown
In experiment [3], B3 gave a Kd of 1.4 µM.

B4: IL6R-BP181/IL6R-L (antibody, human IgG1, kappa)
heavy: QVQLQESGPGLVKPSETLSLTCAVSGHSISHDHAWSWVRQPPGEGLEWIGFISYSGITNYNPSLQGRVTISRDNSKNTLYLQMNSLRAEDTAVYYCARSLARTTAMDYWGEGTLVTVSSASTKGPSVFPLAPSSKSTSGGTAALGCLVKDYFPEPVTVSWNSGALTSGVHTFPAVLQSSGLYSLSSVVTVPSSSLGTQTYICNVNHKPSNTKVDKKVEPKSCDKTHTCPPCPAPDLLGGDSVFLFPPKPKDTLMISRTPEVTCVVVDVSHEDGEVKFNWYVDGVEVHNAKTKPREEQYNSTYRVVSVLTVLHQDWLNGKEYKCKVSNAALPKPIEKTISKAKGQPREPQVYTLPPSRDELTKNQVSLTCLVKGFYPSDIAVEWESNGQPENNYKTTPPVLDSDGSFFLYSKLTVDKSRWQQGNVFSCSVMHEALHNHYTQESLSLSP
light: not shown
As for B4, binding in experiment [4] was characterised by a dissociation constant (Kd) of 28 µM.

B5: IL6R-BP149/IL6R-L (antibody, human IgG1, kappa)
heavy: QVQLQESGPGLVKPSETLSLTCAVSGHSISHDHAWSWVRQPPGEGLEWIGFISYSGITNYNPSLQGRVTISRDNSKNTLYLQMNSLRAEDTAVYYCARSLARTTAMDYWGEGTLVTVSSASTKGPSVFPLAPSSKSTSGGTAALGCLVKDYFPEPVTVSWNSGALTSGVHTFPAVLQSSGLYSLSSVVTVPSSSLGTQTYICNVNHKPSNTKVDKKVEPKSCDKTHTCPPCPAPDYLGDDSVFLFPPKPKDTLMISRTPEVTCVVVDVSHEDPEVKFNWYVDGVEVHNAKTKPREEQDNSTYRVVSVLTVLHQDWLNGKEYKCKVSNAALPKPIEKTISKAKGQPREPQVYTLPPSRDELTKNQVSLTCLVKGFYPSDIAVEWESNGQPENNYKTTPPVLDSDGSFFLYSKLTVDKSRWQQGNVFSCSVMHEALHNHYTQESLSLSP
light: not shown
B5 showed an equilibrium dissociation constant (Kd) in experiment [1] of 14 µM.

B6: IL6R-BP133/IL6R-L (antibody, human IgG1, kappa)
heavy: QVQLQESGPGLVKPSETLSLTCAVSGHSISHDHAWSWVRQPPGEGLEWIGFISYSGITNYNPSLQGRVTISRDNSKNTLYLQMNSLRAEDTAVYYCARSLARTTAMDYWGEGTLVTVSSASTKGPSVFPLAPSSKSTSGGTAALGCLVKDYFPEPVTVSWNSGALTSGVHTFPAVLQSSGLYSLSSVVTVPSSSLGTQTYICNVNHKPSNTKVDKKVEPKSCDKTHTCPPCPAPDYLGGDSVFLFPPKPKDTLMISRTPEVTCVVVDVSHEDPEVKFNWYVDGVEVHNAKTKPREEQYNSTYRVVSVLTVLHQDWLNGKEYKCKVSNKALPKPIEKTISKAKGQPREPQVYTLPPSRDELTKNQVSLTCLVKGFYPSDIAVEWESNGQPENNYKTTPPVLDSDGSFFLYSKLTVDKSRWQQGNVFSCSVMHEALHNHYTQESLSLSP
light: not shown
Turning to B6, the Kd in experiment [5] worked out at 69 µM.

B7: IL6R-BP192/IL6R-L (antibody, human IgG1, kappa)
heavy: QVQLQESGPGLVKPSETLSLTCAVSGHSISHDHAWSWVRQPPGEGLEWIGFISYSGITNYNPSLQGRVTISRDNSKNTLYLQMNSLRAEDTAVYYCARSLARTTAMDYWGEGTLVTVSSASTKGPSVFPLAPSSKSTSGGTAALGCLVKDYFPEPVTVSWNSGALTSGVHTFPAVLQSSGLYSLSSVVTVPSSSLGTQTYICNVNHKPSNTKVDKKVEPKSCDKTHTCPPCPAPDLLGGDSVFLFPPKPKDTLMISRTPEVTCVVVDVSDEDGEVKFNWYVDGVEVHNAKTKPREEQDNSTYRVVSVLTVLHQDWLNGKEYKCKVSNKALPKPIEKTISKAKGQPREPQVYTLPPSRDELTKNQVSLTCLVKGFYPSDIAVEWESNGQPENNYKTTPPVLDSDGSFFLYSKLTVDKSRWQQGNVFSCSVMHEALHNHYTQESLSLSP
light: not shown
Consider B7, for which the Kd amounted to 2.5 µM in experiment [6] and 0.0065 µM in experiment [7].

B8: IL6R-BP266/IL6R-L (antibody, human IgG1, kappa)
heavy: QVQLQESGPGLVKPSETLSLTCAVSGHSISHDHAWSWVRQPPGEGLEWIGFISYSGITNYNPSLQGRVTISRDNSKNTLYLQMNSLRAEDTAVYYCARSLARTTAMDYWGEGTLVTVSSASTKGPSVFPLAPSSKSTSGGTAALGCLVKDYFPEPVTVSWNSGALTSGVHTFPAVLQSSGLYSLSSVVTVPSSSLGTQTYICNVNHKPSNTKVDKKVEPKSCDKTHTCPPCPAPDLLGDDSVFLFPPKPKDTLMISRTPEVTCVVVDVSEEDGEVKFNWYVDGVEVHNAKTKPREEQYNSTYRVVSVLTVLHQDWLNGKEYKCKVSNKALPRPIEKTISKAKGQPREPQVYTLPPSRDELTKNQVSLTCLVKGFYPSDIAVEWESNGQPENNYKTTPPVLDSDGSFFLYSKLTVDKSRWQQGNVFSCSVMHEALHNHYTQESLSLSP
light: not shown
Turning to B8, the Kd in experiment [3] came to 1.4 µM.

B9: IL6R-BP179/IL6R-L (antibody, human IgG1, kappa)
heavy: QVQLQESGPGLVKPSETLSLTCAVSGHSISHDHAWSWVRQPPGEGLEWIGFISYSGITNYNPSLQGRVTISRDNSKNTLYLQMNSLRAEDTAVYYCARSLARTTAMDYWGEGTLVTVSSASTKGPSVFPLAPSSKSTSGGTAALGCLVKDYFPEPVTVSWNSGALTSGVHTFPAVLQSSGLYSLSSVVTVPSSSLGTQTYICNVNHKPSNTKVDKKVEPKSCDKTHTCPPCPAPELLGDDSVFLFPPKPKDTLMISRTPEVTCVVVDVSHEDGEVKFNWYVDGVEVHNAKTKPREEQYNSTYRVVSVLTVLHQDWLNGKEYKCKVSNAALPKPIEKTISKAKGQPREPQVYTLPPSRDELTKNQVSLTCLVKGFYPSDIAVEWESNGQPENNYKTTPPVLDSDGSFFLYSKLTVDKSRWQQGNVFSCSVMHEALHNHYTQESLSLSP
light: not shown
As for B9, the affinity in experiment [4], expressed as Kd, was 18 µM.

B10: IL6R-BP176/IL6R-L (antibody, human IgG1, kappa)
heavy: QVQLQESGPGLVKPSETLSLTCAVSGHSISHDHAWSWVRQPPGEGLEWIGFISYSGITNYNPSLQGRVTISRDNSKNTLYLQMNSLRAEDTAVYYCARSLARTTAMDYWGEGTLVTVSSASTKGPSVFPLAPSSKSTSGGTAALGCLVKDYFPEPVTVSWNSGALTSGVHTFPAVLQSSGLYSLSSVVTVPSSSLGTQTYICNVNHKPSNTKVDKKVEPKSCDKTHTCPPCPAPDLLGGDSVFLFPPKPKDTLMISRTPEVTCVVVDVSHEDPEVKFNWYVDGVEVHNAKTKPREEQYNSTYRVVSVLTVLHQDWLNGKEYKCKVSNDALPKPIEKTISKAKGQPREPQVYTLPPSRDELTKNQVSLTCLVKGFYPSDIAVEWESNGQPENNYKTTPPVLDSDGSFFLYSKLTVDKSRWQQGNVFSCSVMHEALHNHYTQESLSLSP
light: not shown
In turn, B10 returned a Kd in experiment [5] of 0.054 µM.

The Kd is the constant that tells how readily two partners part at equilibrium. Higher therefore signals a looser complex.

The values above are taken from patent publication US20230140797A1 (published 2023).
